B1: Twister Ribozyme (parent)
chain: AACACUGCCAAUGCCGGUCCCAAGCCCGGAUAAAAGUGGAGGGGGCGG

Variants of: B1
Test: self-cleavage, relative activity (ratio to wild type); higher = more cleavage; co-transcriptional

Variant | self-cleavage
C14U G38A | 1.02
C14U G38C | 0.909
G13U G16A | 0.302
C14U C26U | 0.403
C15U A22G | 0.147
G13U A32C | 0.595
C14G A22G | 0.0913
G13U A33C | 0.563
G13U G39U | 0.0998
G13U G39C | 0.11
C15G G28U | 0.761
G13U C14G | 0.512
G13U C14A | 0.687
C14U G29U | 1.09
C14U G29A | 1.06
C14A C25U | 0.699
C14A C25A | 0.242
C14A C25G | 0.657
C14A A33U | 0.908
C14A A34G | 0.88
C14A A34C | 0.426
G13U C21U | 0.0908
C14A G36C | 0.351
C14A G36A | 0.651

Variant | self-cleavage
C14A G36U | 0.221
C15A A30G | 0.492
C14U G39A | 0.509
C14U G39C | 0.198
C14U G39U | 0.28
G13C G48U | 0.217
G13C G48A | 0.115
G13C G48C | 0.249
C14A G39U | 0.198
C14A G39C | 0.154
C14G G44C | 0.129
G13U U31C | 0.639
C15A C25U | 0.436
C15A C25A | 0.0919
C15G G29U | 0.11
C14G C20U | 0.25
C14G C20G | 0.111
C15A C27G | 0.0735
C14A A32G | 0.857
C15A G45C | 0.352
C15A G45A | 0.478
C14A G41A | 0.591
C14A G41U | 0.55
C15A U18G | 0.089

Variant | self-cleavage
C15A G41C | 0.16
C15A G41A | 0.189
C15G U18G | 0.0953
C15A C26A | 0.0686
C15A C26G | 0.108
G13U A23G | 0.0827
G13U C19U | 0.0924
G13U C19A | 0.0828
C14U U31C | 1.22
C14A G17U | 0.361
G13U A40U | 0.16
G13U A40C | 0.129
C14U A32C | 1.03
C14U A32G | 1.07
C14A C20U | 0.977
C15A C20G | 0.0632
C14U G16U | 0.778
G13U A34C | 0.083
G13U A34U | 0.199
G13U C15G | 0.108
G13U C15U | 0.317
G13U C15A | 0.11
C14G G16U | 0.138
C14A G28A | 0.818

Variant | self-cleavage
C14A G28U | 0.854
C14A G28C | 0.757
G13U G47U | 0.197
G13C G17C | 0.0805
G13C G17U | 0.114
C14G C21U | 0.0834
C15A C46A | 0.565
C15A G42C | 0.182
C15A G42U | 0.14
C14A G44U | 0.883
C15G G42U | 0.084
C15G G42A | 0.0628
C14G G24C | 0.0845
C15G U37G | 0.143
C15G U37A | 0.0636
C15G U37C | 0.114
C14U C19G | 0.518
C14U A34U | 0.951
C14U A34C | 0.461
C14U G47A | 0.947
G13U G38U | 0.303
G13U G38C | 0.6
C15A A32U | 0.667
C15A A32C | 0.529

Variant | self-cleavage
C15A A32G | 0.583
C15G A34C | 0.0577
C15A G36A | 0.165
C14A U31G | 0.942
C14A U31C | 0.913
G13C G39A | 0.118
C14G A33U | 0.172
C15G A22C | 0.0849
C14G G36C | 0.065
C14G G36U | 0.0782
C14G G36A | 0.0659
G13C G42A | 0.12
C15A G29A | 0.793
C15G G41A | 0.112
C15G G41U | 0.0559
C14U C21U | 0.141
C14U C21A | 0.108
G13U U37A | 0.133
G13U U37G | 0.119
C14A G43U | 0.456
C14G G42U | 0.0931
C14G G42A | 0.0786
C15A G17C | 0.0439
C14U C46U | 1.01

Variant | self-cleavage
C14U C46G | 1.04
G13U G48C | 0.456
C14U G48A | 1.1
C14U G48C | 1.26
C15A C21G | 0.0777
C14U A22C | 1.15
C14U A22G | 0.319
C15G C26U | 0.0429
C15G C26A | 0.0956
C14A A35U | 0.789
C14A A35C | 0.863
C15A G43A | 0.299
C14U C25G | 0.627
C14U G36C | 0.464
C14U G36U | 0.421
C15A U37C | 0.168
C15A U37A | 0.129
G13C U31C | 0.552
C14U G44U | 1.15
C14U G44A | 1.08
C14U G44C | 0.983
C15G G48U | 0.0875
C15G G48A | 0.0877
C14U C15G | 0.36

Variant | self-cleavage
C14A A30U | 0.968
C15A U31A | 0.706
C15A U31G | 0.76
C14A A40U | 0.143
G13U G41A | 0.0904
G13U G41U | 0.104
C14G C26U | 0.0493
C15A G24A | 0.0695
C15A G24C | 0.0841
G13U G29A | 0.368
G13C G44A | 0.584
C15A G16C | 0.264
C15A G16A | 0.351
C15A G16U | 0.34
C15A A40U | 0.116
G13U G45A | 0.308
C15G C46G | 0.111
C15G C46A | 0.0745
C15G C46U | 0.075
C14G A32C | 0.12
C14G A32G | 0.117
C14G G28A | 0.162
C14G G28C | 0.106
